Here are results for 57 substances from the supplement of paper PMC12042874.

± gives the uncertainty stated by the source.

The data set is described as follows: amyloid nucleation score (Sup35N fusion, yeast selection) (log enrichment); library NNK2; higher = more nucleation; inactive = no reads after selection. In short, it runs like this:
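Random libraries were run with three technical output replicates. In each, psi-negative yeast expressing Sup35N fused to peptides of 20 random codons were induced 24 hours with 100 μM copper sulfate and grown 7 days at 30°C on medium lacking adenine and uracil, and input and output plasmid inserts were Illumina-sequenced. The nucleation score is the DiMSum log enrichment of output over input reads, centred on the mode score of non-aggregating sequences, and sequences under 100 input reads were excluded.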

Turning to KDLEFSISLMKVPNIWWHYR, the amyloid nucleation score is 1.04 ± 0.17.
Consider FYYCRALWVYLVTCWHCLSY, for which the amyloid nucleation score is -0.864 ± 1.1.
Take WCLSLPVRDSTVCLSTVLSG: the amyloid nucleation score amounted to 0.294 ± 0.29.
As to ALMEKSTSNLLFCHLDCASD, the amyloid nucleation score worked out at 3.24 ± 0.071.
As for DGTNFDR, the amyloid nucleation score is -0.92 ± 0.37.
Take AVGYVMLMEMEALPISMWRG: the amyloid nucleation score stood at 7.027 ± 0.054.
REFDRNFTPYPSQQELPIWW: the amyloid nucleation score was 0.827 ± 0.39.
Then VHNQGFLFL, with -0.07 ± 0.76; and NSIYTESHGCTSSCLYGSGY, with -0.839 ± 0.78.
As to KDYSGGIRHPVVPSGMISYL, the amyloid nucleation score was -1.44 ± 1.1.
The substance MTIHVSTELAALSSGL registered an amyloid nucleation score of 1.11 ± 0.17.
Then VFIFLGLPLFPMITSIDLGY, with 2.28 ± 0.13; and CYRPDRPIITIDLVCVRFS, with 1.9 ± 0.2; and FVCGGILFLLCFLE, with 2.56 ± 0.12.
NTGWILPYCKRGNSALEGWL: the amyloid nucleation score worked out at 4.31 ± 0.056.
As for QLVFYSNFVSKDVNVDLQWL, the figure is 5.75 ± 0.062; as for TMGYEFMQILLDLRNLSCSY, 3.64 ± 0.097.
Then NMDYDIKEQFLSRVPSPRES, with -0.95 ± 0.78; and TGGRNVHNCNNNHASSWPRC, with -1.05 ± 0.76.
MSTMINSPPSSG: the amyloid nucleation score result was “inactive”.
As for MPHLVVTNAPGVSIRVGSDW, the figure is -0.888 ± 0.78; as for SGGLSR, -0.728 ± 0.79.
For RRMVMVSANVSLIEQHYCRN, the amyloid nucleation score was found to be 5.552 ± 0.042.
SLVFNQAHWNRLIPTT displayed an amyloid nucleation score of -1.02 ± 0.63.
VASGDSVLPKDIVFFSSIQG registered an amyloid nucleation score of -0.653 ± 0.29.
Consider TYTYSSCRIARRS, for which the amyloid nucleation score is -0.559 ± 0.26.
As to SPQLTIYPRMYSRSLVLNRC, the amyloid nucleation score amounted to 0.078 ± 0.77.
With SCLEMYSHRVPWSFACDDYN, the amyloid nucleation score result was “inactive”.
Consider GFCPLVRPSCESFRLQERLV, for which the amyloid nucleation score was -0.303 ± 0.63.
EKLRNQFKP showed an amyloid nucleation score of -0.569 ± 1.1.
As for DLWTAWSRLHLDGG, the figure is 0.431 ± 0.23; as for ALMHTNGTV, -0.406 ± 1.1; as for HSSLFSYREQLYTSFCNIGM, 4.99 ± 0.067.
Then FIDTLNYDWDIVLFWFLGEN, with 0.021 ± 0.51; and VLAYMQHFYRCQLCSVYVWG, with 4.23 ± 0.11; and VIHAFIMYSFGTKDV, with 0.885 ± 0.32.
On to IDKICFKTDLIVFCRGLNPC, for which the amyloid nucleation score stood at 1.9 ± 0.19.
ISSICFRNRDNFFLRAFGIG: the amyloid nucleation score result was “inactive”.
Then LYCSSLFKVYRGVQTRAKLR, with “inactive”; and ANWPR, with -0.391 ± 0.79; and LGHHVQYLRFVWLWQND, with 1.17 ± 0.22.
MILEVSDWLGVVCVIKVWLT registered an amyloid nucleation score of 0.561 ± 0.41.
Then SSASALMKLVMMY, with -0.003 ± 0.22; and QCYAMSSLMMLYLFFLWGCG, with -1.05 ± 0.55; and KTSWFGYSWNDHHSIRHQCS, with 0.84 ± 0.43.
As for GKRFNFVTCPPVLRR, the figure is -0.088 ± 0.34; as for VYLDWFYWPDTIHG, 4.87 ± 0.075.
In the case of SCVLRP, the amyloid nucleation score came out at 0.064 ± 0.33.
Then WFYTYSLFGFVVNIVFTYPL, with -0.176 ± 0.36; and TLCMSRGNSYCCMQSFSEKD, with 5.05 ± 0.063; and ASYLCFPNNVVLSLHNHVFS, with 4.834 ± 0.048.
As for DDLGMTFRLG, the figure is -0.337 ± 0.79.
Then LLSDLFCIFVLRKSRSGGWS, with 1.04 ± 0.34; and IMSSHKSAYRVFLHGLCRMV, with -0.028 ± 0.74.
MEDHF: the amyloid nucleation score was determined as 3.69 ± 0.11.
Take HLSCKVIENGLWTSFCFKQE: the amyloid nucleation score was -1.04 ± 0.54.
On to VANRIMLGSLGMGFVVGSSM, for which the amyloid nucleation score is -0.033 ± 0.43.
